{"source": "patent US20060009622A1", "about": "(ADMINISTRATORS OF THE TULANE EDUCATIONAL FUND, published 2006)", "molecules": {"B1": {"name": "camptothecin-carbonyl-N-(2-aminoethyl)-glycine-D-Ser-Nle-D-Tyr-D-Ser-cyclo[Cys-Phe-D-Trp-Lys-Thr-Cys]-Thr-amide (peptide)", "peptide": "[N(2-Aminoethyl)Gly][dS][Nle][dY][dS]CF[dW]KTCT-NH2", "modifications": "disulfide 6-11; not fully specified (N-terminus); printed as camptothecin-carbonyl-N-(2-aminoethyl)-glycine-D-Ser-Nle-D-Tyr-D-Ser-cyclo[Cys-Phe-D-Trp-Lys-Thr-Cys]-Thr-amide"}, "B2": {"name": "camptothecin-carbonyl-N-(N-methyl-2-aminoethyl)-glycine-D-Ser-Nle-D-Tyr-D-Ser-cyclo[Cys-Phe-D-Trp-Lys-Thr-Cys]-Thr-amide (peptide)", "peptide": "[NGly(2-(methylamino)ethyl)][dS][Nle][dY][dS]CF[dW]KTCT-NH2", "modifications": "disulfide 6-11; not fully specified (N-terminus); printed as camptothecin-carbonyl-N-(N-methyl-2-aminoethyl)-glycine-D-Ser-Nle-D-Tyr-D-Ser-cyclo[Cys-Phe-D-Trp-Lys-Thr-Cys]-Thr-amide"}, "B3": {"name": "combretastatin-carbonyl-N-(2-aminoethyl)-glycine-D-Ser-Nle-D-Tyr-D-Ser-cyclo[Cys-Phe-D-Trp-Lys-Thr-Cys]-Thr-amide (peptide)", "peptide": "[N(2-Aminoethyl)Gly][dS][Nle][dY][dS]CF[dW]KTCT-NH2", "modifications": "disulfide 6-11; not fully specified (N-terminus); printed as combretastatin-carbonyl-N-(2-aminoethyl)-glycine-D-Ser-Me-D-Tyr-D-Ser-cyclo[Cys-Phe-D-Trp-Lys-Thr-Cys]-Thr-amide"}}, "note": "Numbered stars: 1 amine (or outer) side, 2 acyl side, 3 side chain; on linkers, the order of the positions; unused ones are H or OH. Bridge positions count the residues as written; N and C are the ends. Square brackets hold non-standard residues; d marks the D form. Ends that are not written are not given here. NGly(2-(methylamino)ethyl) = CN(CCN(CC(=O)[*:2])[*:1])[*:3]; N(2-Aminoethyl)Gly = O=C(CN(CCN[*:3])[*:1])[*:2]; Nle = CCCC[C@H](N)C(=O)O"}
{"target": "human type 2 somatostatin receptor (human, UniProt P30874 1-369, limits assumed)", "sequence (P30874 whole entry)": "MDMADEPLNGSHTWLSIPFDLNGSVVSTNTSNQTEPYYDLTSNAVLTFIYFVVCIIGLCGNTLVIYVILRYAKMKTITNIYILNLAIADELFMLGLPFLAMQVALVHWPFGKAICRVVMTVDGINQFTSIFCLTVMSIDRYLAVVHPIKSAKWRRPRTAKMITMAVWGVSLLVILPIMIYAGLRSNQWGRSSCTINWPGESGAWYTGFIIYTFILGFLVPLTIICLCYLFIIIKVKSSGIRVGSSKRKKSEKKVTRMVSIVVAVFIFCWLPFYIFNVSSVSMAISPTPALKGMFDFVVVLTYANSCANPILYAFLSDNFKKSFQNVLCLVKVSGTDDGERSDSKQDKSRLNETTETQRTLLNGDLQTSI", "experiment": "cell-based or functional assay", "units": {"Growth Hormone Inhibition IC50, nM (inhibition of GNRH-stimulated GH release from monolayer cultures of rat pituitary cells)": "nM"}}
{"molecule": "somatostatin-14 (from UniProt P61278 89-116) (peptide)", "Growth Hormone Inhibition IC50, nM (inhibition of GNRH-stimulated GH release from monolayer cultures of rat pituitary cells)": 0.63}
{"molecule": "B1", "Growth Hormone Inhibition IC50, nM (inhibition of GNRH-stimulated GH release from monolayer cultures of rat pituitary cells)": 0.32}
{"molecule": "B2", "Growth Hormone Inhibition IC50, nM (inhibition of GNRH-stimulated GH release from monolayer cultures of rat pituitary cells)": 0.27}
{"molecule": "B3", "Growth Hormone Inhibition IC50, nM (inhibition of GNRH-stimulated GH release from monolayer cultures of rat pituitary cells)": 0.31}
